Paper PMC9396414 (2022)

Molecular target: RbPLX7
Test: SPR

- Kd: 346 pM
B1: biotinylated human Plexin-B1 (20–535)-Avi-6xHis (domain or fragment)
chain: LQPLPPTAFTPNGTYLQHLARDPTSGTLYLGATNFLFQLSPGLQLEATVSTGPVLDSRDCLPPVMPDECPQAQPTNNPNQLLLVSPGALVVCGSVHQGVCEQRRLGQLEQLLLRPERPGDTQYVAANDPAVSTVGLVAQGLAGEPLLFVGRGYTSRGVGGGIPPITTRALWPPDPQAAFSYEETAKLAVGRLSEYSHHFVSAFARGASAYFLFLRRDLQAQSRAFRAYVSRVCLRDQHYYSYVELPLACEGGRYGLIQAAAVATSREVAHGEVLFAAFSSAAPPTVGRPPSAAAGASGASALCAFPLDEVDRLANRTRDACYTREGRAEDGTEVAYIEYDVNSDCAQLPVDTLDAYPCGSDHTPSPMASRVPLEATPILEWPGIQLTAVAVTMEDGHTIAFLGDSQGQLHRVYLGPGSDGHPYSTQSIQQGSAVSRDLTFDGTFEHLYVMTQSTLLKVPVASCAQHLDCASCLAHRDPYCGWCVLLGRCSRRSECSRGQGPEQWLWSFQPELGCLQ
modifications: biotin on the Avi-tag (in vitro, BirA enzyme)
